Source: PMC9653972, “Thermophilic Inorganic Pyrophosphatase Ton1914 from Thermococcus onnurineus NA1 Removes the Inhibitory Effect of Pyrophosphate” (International Journal of Molecular Sciences, 2022)

Substrate: O=P(O)(O)OP(=O)(O)O
Experiment: purified protein
Format: biochemical, Thermococcus onnurineus
Details: standard assay: 2 mM MgCl2, 50 mM Tris-HCl, 80 °C, optimum pH 9.0 (pH of the kinetic run not stated)

B1: Ton1914 (Thermococcus onnurineus NA1) (protein)
chain: MNPFHELEPGPEVPEVVYALIEIPKGSRNKYELDKKTGLLKLDRVLYSPFFYPVDYGIIPQTWYDDGDPFDIMVIMREPVYPLTIVEARPIGIMKMEDSGDKDWKVLAVPVEDPYFNDWKDIDDVPKAFLDEIAHFFQRYKELQGKVTTVEGWGTAEEAKREILRAIEMYKEKFGKKE
notes: about 120 kDa native-PAGE, homo-hexamer; pET28a Nco I/Xho I, E. coli BL21(DE3), heat-purified 80 °C; EC 3.6.1.1, Family I
Km: 1.116 mM
kcat: 30000 s⁻¹
kcat/Km: 2.68e+07 M⁻¹ s⁻¹
